# Experimental data taken from patent publication US20210047373A1, “BETA BARREL POLYPEPTIDES AND METHODS FOR THEIR USE” (UNIVERSITY OF WASHINGTON, priority 2018, published 2021).
# Substitutions are numbered along the chain they refer to. Marks after values point to notes of the source that are not given here.
# B1: b11L5F: SEQ ID NO:25; b11 with a 5-residue fifth turn (protein)
# chain: MCRAASLLPGTWQVTMTNEDGQTSQGQMHFQPRSPYTLDVKAQGTISDGRPISGKGKVTCKTPDTMDVDITYPSLGNMKVQGQVTLDSPTQFKFDVTTSDGSKVTGTLQRQE
# modifications: (1)..(1) optionally absent
# B2: b11: SEQ ID NO:4; monomeric design with disulfide bond, activates DFHBI fluorescence (protein)
# chain: MCRAASLLPGTWQVTMTNEDGQTSQGQMHFQPRSPYTLDVKAQGTMSDGRPIQGKGKVTCKTPDTMDVDITYSDGKQVQGQVTLDSPTQFKFDVTTSDGSKVTGTLQRQE
# modifications: (1)..(1) optionally absent
# B3: b32: SEQ ID NO:12; monomeric design, activates DFHBI fluorescence (protein)
# chain: MGQEVAQVLPGDWQVHMTNEDGQTSTGTVTFQPRSPYTFDVKFKGTMSDGRPITGKGKMTMKTPDTMDIDVTYSDGKKVTGKVTMKSPTQLDWDLTTSDGSKVTGTSHRQE
# modifications: (1)..(1) optionally absent
# B4: b11L5F.1: SEQ ID NO:26; b11L5F triple mutant 83I_95A_103L without disulfide (protein)
# chain: B1 chain with C2S, K41V, K55Y, C60V, V84I, V96A, V104L
# modifications: (1)..(1) optionally absent
# B5: b11L5F.2: SEQ ID NO:27; second round design from b11L5F.1 (protein)
# chain: MNRAAQLLPGTWQVTMTNEDGQTSQGQMHFQPRSPYTLDIVAQGTISDGRPISGYGKVTVKTPDTMHVNITYPSLGNIKVQGQITLDSPTQFTWNSTTSDGKKLTGTLQRQE
# modifications: (1)..(1) optionally absent
# B6: mFAP1: SEQ ID NO:33; variant of b11L5F.2 (protein)
# chain: MSRAAQLLPGTWQTTMTNEDGQTSQGQMHFQPRSPYTLDVVAQGTISDGRPISGYGKVTVKTDDTLDVDITYPSLGNIKVQGQVTMDSPTQFKFDATTSDGKKLTGTLQRQE
# modifications: (1)..(1) optionally absent
# B7: mFAP2.3: SEQ ID NO:58 (protein)
# chain: MSRAAQLLPGTWQVTMTNEDGQTSQGQMHFQPRSPYTMDVVAQGTISDGRPIVGYGKVTVKTPDTLDVDITYPSLGNIKAQGQITMDSPTQFKFDATTKGENDFHGRLTGTLQRQE
# modifications: (1)..(1) optionally absent
# B8: mFAP2.4: SEQ ID NO:59 (protein)
# chain: B7 chain with V40I, V58A, E101A, N102G, D103N, H105T
# modifications: (1)..(1) optionally absent
# B9: mFAP2.5: SEQ ID NO:60; mutations of mFAP2.3 and mFAP2.4 combined (protein)
# chain: B7 chain with M28W, V40I, V58A, F94W
# modifications: (1)..(1) optionally absent
# Columns and labels:
# [1] = previously reported value, cited from earlier work
# [2] = Fluorescence activation / brightness with DFHBI; assay type: biochemical; details: for Activation of DFHBI fluorescence: monomeric designs; for Fluorescence brightness, 100 nM DFHBI / Fluorescence brightness, 10 μM DFHBI: normalized 0 to 1 across all three chromophores, average ± SD of two protein concentrations; for Increase in fluorescence of the phenolate form of DFHBI: pH 7.36, versus mFAP2.2
# Procedure: (§1) Fluorescence binding assay. Protein-activated DFHBI fluorescence signals were measured in 96-well plate format (Corning 3650) on a Synergy neo2 plate reader (BioTek, Inc) with λex=450 nm or 460 nm and λem=500 nm or 510 nm. Binding reactions were performed at […] in PBS pH7.4 buffer. Protein concentrations were determined by 280 nm absorbance as described above. DFHBI (Lucerna, Inc) were resuspended in DMSO as instructed to make 100 mM stock and diluted in PBS to 0.5-10 μM. Approximate emission spectra were recorded for active designs from 490 to 600 nm.
# (§2) Table 3A-C. Brightness and chromophore affinities of selected mFAP variants. Fluorescence brightness measurements at 10 μM (top table) and 100 nM (middle table) chromophore concentrations were normalized from 0 to 1 across all three chromophores (DFHBI, DFHBI-1T, and DFHO), and the normalized values for two protein concentrations tested for each chromophore at each chromophore concentration were averaged and standard deviations of the average computed. Reported values are the normalized averages and standard deviations of the means for each chromophore concentration and each chromophore. Reported relative densitometry values are the relative densitometry values normalized from 0 to 1 and represent how well each design expresses relative to one another in Lemo21(DE3) E. coli cultures. Thermodynamic dissociation constants (bottom table) are obtained by non-linear least squares fitting of chromophore titrations (n=1) to a single binding site isotherm, and values reported with the standard deviation of the fit. Where the obtained Kd values are below the protein concentration tested, the Kd and standard deviation of the fit are reported in parentheses. Values with “N/D” were not determined.
# [3] = Circular dichroism, thermal and GuHCl denaturation; assay type: physicochemical; details: CD
# Procedure: Circular dichroism (CD). Purified protein samples were prepared at 0.5 mg/ml in 20 mM Tris buffer (150 mM NaCl, pH8.0) or PBS buffer (25 mM phosphate, 150 mM NaCl, pH7.4). Wavelength scans from 195 nm to 260 nm were recorded at 25 degrees Celsius, 75 degrees Celsius, 95 degrees Celsius and cooling back to 25 degrees Celsius. Thermal denaturation was monitored at 220 nm or 226 nm from 25 degrees Celsius to 95 degrees Celsius. Near-UV wavelength scan from 240 nm to 320 nm and tryptophan fluorescence emission were recorded in the absence and presence of 5M guanidinium chloride (GuHCl). Chemical denaturation in GuHCl was monitored by both tryptophan fluorescence and near-UV CD signal at 285 nm. The concentration of the GuHCl stock solution was measured with a refractometer (Spectronic Instruments, Inc). Far-UV CD experiments were performed on an AVIV model 420 CD spectrometer (Aviv Biomedical, Inc). Near-UV CD and tryptophan fluorescence experiments were performed on a Jasco J-1500 CD spectrometer (Jasco, Inc). Protein concentrations were determined by 280 nm absorbance with a NanoDrop™spectrophotometer (ThermoScientific, Inc). Melting temperatures were estimated by smoothing the sparse data with a Savitsky-Golay filter of order 3 and approximating the smoothed data with a cubic spline to compute derivatives. Reported Tm values are the inflection points of the melting curves.
# [4] = Photophysical characterization (absorbance, excitation, emission, extinction coefficient, quantum yield); assay type: physicochemical
# [5] = Chromophore titration, fit to single binding site isotherm: DFHBI; details: ± SD of the fit
# Procedure: as §1, §2
# [6] = Chromophore titration, fit to single binding site isotherm: DFHBI-1T; details: n=1 titration; ± SD of the fit; Table 3C
# Procedure: as §2
# [7] = Chromophore titration, fit to single binding site isotherm: DFHO; details: n=1 titration; ± SD of the fit; Table 3C
# Procedure: as §2
# [8] = Fluorescence brightness with DFHBI-1T; assay type: biochemical; details: normalized 0 to 1 across all three chromophores; average ± SD of two protein concentrations
# Procedure: as §2
# [9] = Fluorescence brightness with DFHO; assay type: biochemical; details: normalized 0 to 1 across all three chromophores; average ± SD of two protein concentrations
# Procedure: as §2
# [10] = test system: E. coli, yeast, and mammalian cells; test: Confocal imaging of cells expressing mFAPs with DFHBI; assay type: cell-based; details: 20 μM DFHBI
# Procedure: To determine whether the designed DFHBI-binding fluorescence-activating proteins function in living cells, we imaged mFAP1- and mFAP2-DFHBI complexes in E. coli, yeast, and mammalian cells by confocal microscopy. […] The quantum yield of mFAP1 and mFAP2 in complex with DFHBI is 2.0% and 2.1% respectively (Table 2).
# Confocal image acquisition. Mammalian cell imaging of mFAP1 and mFAP2 was performed in NIH3T3 cells (Flp-In-3T3, Thermo Fisher Scientific, Inc). NIH3T3 cells were cultured in high-glucose DMEM, 4 mM L-glutamine, 10% fetal bovine serum (FBS, Life Technologies, Inc) at 37 degrees Celsius, 5% CO2. Cells were plated at 4×10^4 cells/mL in 35 mm glass-bottomed dishes (Matek, Inc) that were coated with poly-D-lysine. Cells were transfected 24 hours after plating with Lipofectamine™ 3000 (Thermo Fisher Scientific, Inc) at a ratio of 3 μL reagent:1 μL DNA, according to manufacturer's instructions, with […] plasmids of mFAPs or mFAP fusions (1.25 μg mCherry™ plasmid was added to the cytosolic constructs as a transfection control). Right before imaging, cell media was replaced with FluorBrite™ DMEM (Thermo Fisher Scientific, Inc) media supplemented with GlutaMax™ (Thermo Fisher Scientific, Inc) and 10% v/v FBS, and 20 μM DFHBI. […] A white light laser of 488 was used to excite the DFHBI and detected by a HyD detector, over a range of 495-550 nm. […]
# [11] = n=1 titration, Table 3C, read-out: DFHBI Kd
# [12] = obtained Kd below the protein concentration tested, read-out: DFHBI Kd, fit value in parentheses
Molecule,"Kd [5, 11] [µM]",Kd [6] [µM],Kd [7] [µM],"Fluorescence brightness, 100 nM DFHBI [2]","Fluorescence brightness, 10 μM DFHBI [2]","Fluorescence brightness, 100 nM DFHBI-1T [8]","Fluorescence brightness, 10 μM DFHBI-1T [8]","Fluorescence brightness, 100 nM DFHO [9]","Fluorescence brightness, 10 μM DFHO [9]",further results
CC1=N/C(=C\c2cc(F)c(O)c(F)c2)C(=O)N1CC(F)(F)F [DFHBI-1T],–,–,–,–,–,–,–,–,–,"Extinction Coefficient ([1]; Table 4): 35,400^† M^−1 · cm^−1; λabs ([1]; Table 4): 422^† nm; λem ([1]; Table 4): 495^† nm; λex ([1]; Table 4): 426^† nm; Reported Quantum Yield [1]: 0.00098^†"
B1,–,–,–,–,–,–,–,–,–,"Fluorescence activity in comparison with b11 ([2]; 100 μM protein+10 μM DFHBI): 5.2 fold; Increase of fluorescence intensity ([2]; fifth turn changed to a five-residue turn, versus b11): fourfold"
B2,–,–,–,–,–,–,–,–,–,Thermal stability [3]: undergo reversible thermal melting transitions; Absorption peak with DFHBI bound [4]: 450 nm; Emission peak with DFHBI bound [4]: 510 nm; Activation of DFHBI fluorescence [2]: found to activate DFHBI fluorescence
B3,–,–,–,–,–,–,–,–,–,Thermal stability [3]: undergo reversible thermal melting transitions; Absorption peak with DFHBI bound [4]: 450 nm; Emission peak with DFHBI bound [4]: 510 nm; Activation of DFHBI fluorescence [2]: found to activate DFHBI fluorescence
B4,–,–,–,–,–,–,–,–,–,"Higher DFHBI fluorescence ([2]; substitutions at V103, V95, V83 of b11L5F): tenfold"
B5,–,–,–,–,–,–,–,–,–,"Increase of fluorescence, second round of design ([2]; versus b11L5F.1): approximately 1.4 fold"
B6,< 0.5,10.8 ± 1,7.8 ± 2.89,0.18 ± 0.0,0.13 ± 0.02,0.01 ± 0.0,0.01 ± 0.0,0.01 ± 0.0,0.0 ± 0.0,"Quantum yield in complex with DFHBI ([4]; absolute): 2.0%; Kd [5, 12]: 0.496 µM; In vivo fluorescence activation [10]: showed in vivo fluorescence activation"
B7,< 0.5,1.58 ± 0.34,10.4 ± 3.59,0.15 ± 0.0,0.2 ± 0.03,0.52 ± 0.02,0.67 ± 0.04,0.02 ± 0.0,0.01 ± 0.0,"Kd [5, 12]: 0.146 µM; Increase in fluorescence of the phenolate form of DFHBI [2]: ~1.1 fold"
B8,1.31 ± 0.1,38.7 ± 5.71,32.7 ± 14.2,0.69 ± 0.03,0.69 ± 0.06,0.01 ± 0.0,0.01 ± 0.0,0.01 ± 0.0,0.0 ± 0.0,Increase in fluorescence of the phenolate form of DFHBI [2]: ~3.4 fold
B9,1.13 ± 0.09,52.5 ± 7.48,34.2 ± 13.7,0.83 ± 0.02,0.8 ± 0.03,0.01 ± 0.0,0.01 ± 0.0,0.01 ± 0.0,0.0 ± 0.0,–
